Assay results as given in the supplement of paper PMC10567573.

B1: ZNF649 (parent)
chain: EHERAHRGEKPHGCSLCGKAFYKR
B2: STX5 (parent)
chain: RSEFTLMAKRIGKDLSNTFAKLEK

Variants of: B1
Assay: protein stability index of a GFP-peptide fusion (GPS, HEK-293T) (PSI 1-6); higher = more stable
Conditions: c terminus: a fixed tail appended
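Also: lentivirally expressed fusions sorted by FACS into six bins by GFP to DsRed ratio, PSI derived from sequencing read proportions per bin multiplied by bin number.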

Q: For EHERDHRGEKPHGCSLCGKAFYKR [A5D], which protein stability index is on record?
A: 1.88

Q: With EHERGHRGEKPHGCSLCGKAFYKR [A5G] as the variant, how does the protein stability index read?
A: 1.52

Q: Which protein stability index does the source give for EHERAHRGEKPHGCSLCDKAFYKR [G18D] here?
A: 2.45

Q: With EHERAHRGEKAHGCSLCGKAFYKR [P11A] as the variant, how does the protein stability index read?
A: 2.08

Q: Which protein stability index does the source give for EHERAHRGEKTHGCSLCGKAFYKR [P11T] here?
A: 2.54

Q: With EHERAHRGEKVHGCSLCGKAFYKR [P11V] as the variant, how does the protein stability index read?
A: 1.79

Q: With HHERAHRGEKPHGCSLCGKAFYKR [E1H] as the variant, how does the protein stability index read?
A: 1.86

Q: Which protein stability index does the source give for EHERAHRGEFPHGCSLCGKAFYKR [K10F] here?
A: 2.98

Q: Which protein stability index does the source give for EHERAHRGETPHGCSLCGKAFYKR [K10T] here?
A: 3.02

Q: Which protein stability index does the source give for EHERAHRGENPHGCSLCGKAFYKR [K10N] here?
A: 1.19

Q: With EHERAHRGEKPRGCSLCGKAFYKR [H12R] as the variant, how does the protein stability index read?
A: 1.66

Q: Which protein stability index does the source give for EHERAHRGEKPSGCSLCGKAFYKR [H12S] here?
A: 1.32

Q: With EHERAHPGEKPHGCSLCGKAFYKR [R7P] as the variant, how does the protein stability index read?
A: 2.63

Q: With EHERAHNGEKPHGCSLCGKAFYKR [R7N] as the variant, how does the protein stability index read?
A: 3.32

Q: Which protein stability index does the source give for EHERAHRGEKPHGCSLSGKAFYKR [C17S] here?
A: 3.35

Q: For EHERAHRGEKPHGCSLMGKAFYKR [C17M], which protein stability index is on record?
A: 3.87

Q: For EHERAHRGEKPHGCSLQGKAFYKR [C17Q], which protein stability index is on record?
A: 4.46

Q: With EHRRAHRGEKPHGCSLCGKAFYKR [E3R] as the variant, how does the protein stability index read?
A: 1.96

Q: With EHERAHRGEKPHGCDLCGKAFYKR [S15D] as the variant, how does the protein stability index read?
A: 3.14

Q: With EHERAHRGEKPHGCRLCGKAFYKR [S15R] as the variant, how does the protein stability index read?
A: 2.23

Q: For EHERAHRGEKPHGCQLCGKAFYKR [S15Q], which protein stability index is on record?
A: 1.41

Q: For EHERAHRGEKPHGCMLCGKAFYKR [S15M], which protein stability index is on record?
A: 1.93

Q: Which protein stability index does the source give for EHERAHRGEKPHGCSLCGKAYYKR [F21Y] here?
A: 2.95

Q: With EHERAHRGEKPHGCSLCGKAVYKR [F21V] as the variant, how does the protein stability index read?
A: 2.01

Q: Which protein stability index does the source give for EHERAHRGEKPHGCSLCGKAFNKR [Y22N] here?
A: 2.35

Q: With EHERAHRGEKPHGCSLCGKAFDKR [Y22D] as the variant, how does the protein stability index read?
A: 2.48

Q: For EHERAHRGEKPHGCSLCGKAFIKR [Y22I], which protein stability index is on record?
A: 1.93

Q: For EHERAHRGEKPHGCSLCGKAFVKR [Y22V], which protein stability index is on record?
A: 1.36

Q: With EHERAHRGEKPHGCSLCGKAFAKR [Y22A] as the variant, how does the protein stability index read?
A: 2.22

Q: Which protein stability index does the source give for EHERAHRGEKPHGCSLCGKAFFKR [Y22F] here?
A: 2.95

Q: For EHERAHRGEKPHGCSLCGKAFYKV [R24V], which protein stability index is on record?
A: 2.05

Q: Which protein stability index does the source give for EHERAWRGEKPHGCSLCGKAFYKR [H6W] here?
A: 1.78

Q: For EHERAHRGEKPHGCSLCGKAFYVR [K23V], which protein stability index is on record?
A: 1.95

Q: With EHERAHRGEKPHGCSLCGKAFYDR [K23D] as the variant, how does the protein stability index read?
A: 1.9

Q: Which protein stability index does the source give for EHERAHRGEKPHGCSLCGKAFYTR [K23T] here?
A: 2.8

Q: For EHERAHRGEKPHGCSLCGKAFYQR [K23Q], which protein stability index is on record?
A: 2.24

Q: For EHERAHRGYKPHGCSLCGKAFYKR [E9Y], which protein stability index is on record?
A: 2.19

Q: Which protein stability index does the source give for EHERAHRGAKPHGCSLCGKAFYKR [E9A] here?
A: 2.28

Q: Which protein stability index does the source give for EHERAHRGLKPHGCSLCGKAFYKR [E9L] here?
A: 2.16

Q: Which protein stability index does the source give for EHERAHRGIKPHGCSLCGKAFYKR [E9I] here?
A: 1.86

Q: Which protein stability index does the source give for EHERAHRGEKPHGCSLCGMAFYKR [K19M] here?
A: 2.01

Q: For EHERAHRTEKPHGCSLCGKAFYKR [G8T], which protein stability index is on record?
A: 1.91

Q: Which protein stability index does the source give for EHERAHRIEKPHGCSLCGKAFYKR [G8I] here?
A: 2.01

Q: With EHERAHREEKPHGCSLCGKAFYKR [G8E] as the variant, how does the protein stability index read?
A: 2.27

Q: For EHERAHRFEKPHGCSLCGKAFYKR [G8F], which protein stability index is on record?
A: 2.22

Q: Which protein stability index does the source give for EHERAHRQEKPHGCSLCGKAFYKR [G8Q] here?
A: 3.17

Q: Which protein stability index does the source give for EHEIAHRGEKPHGCSLCGKAFYKR [R4I] here?
A: 1.91

Q: For EHERAHRGEKPHGCSYCGKAFYKR [L16Y], which protein stability index is on record?
A: 2.14

Q: For EHERAHRGEKPHGCSACGKAFYKR [L16A], which protein stability index is on record?
A: 3.17

Q: For EHERAHRGEKPHGCSGCGKAFYKR [L16G], which protein stability index is on record?
A: 3.96

Q: With EHERAHRGEKPHICSLCGKAFYKR [G13I] as the variant, how does the protein stability index read?
A: 3.07

Q: Which protein stability index does the source give for EHERAHRGEKPHFCSLCGKAFYKR [G13F] here?
A: 2.72

Q: For EHERAHRGEKPHGKSLCGKAFYKR [C14K], which protein stability index is on record?
A: 4.59

Q: With EHERAHRGEKPHGISLCGKAFYKR [C14I] as the variant, how does the protein stability index read?
A: 4.24

Q: Which protein stability index does the source give for EHERAHRGEKPHGTSLCGKAFYKR [C14T] here?
A: 3.91

Variants of: B2
Assay: as above
Conditions: c terminus: a fixed tail appended

Q: With RSEFTLMAKRIGKDLSNTFAKLES [K24S] as the variant, how does the protein stability index read?
A: 1.63

Q: Which protein stability index does the source give for RSEFTLMAKRIGKDLSNTFAKLEE [K24E] here?
A: 1.76

Q: Which protein stability index does the source give for RSEFTLMAKRIGKDLSNTFAKLER [K24R] here?
A: 2.5

Q: Which protein stability index does the source give for RSEFTLMAKRIGKDLSNTFAKLEV [K24V] here?
A: 2.42

Q: With RSEFTLMAKRIGKDLSNTFAKLED [K24D] as the variant, how does the protein stability index read?
A: 2.61

Q: Which protein stability index does the source give for RSEFTLMAKRIGKDLSNTFAKLEG [K24G] here?
A: 4.41

Q: With RSEFTLMAKRIGKDLSNTFAKLEH [K24H] as the variant, how does the protein stability index read?
A: 2.46

Q: Which protein stability index does the source give for RSEFTLMAKRIGKDLSNTFAKLEP [K24P] here?
A: 2.42

Q: For RSEFTLMAKRIGKDLSNTFAKLEL [K24L], which protein stability index is on record?
A: 2.38

Q: With RSEFTLMAKRIGKDLSNTFAKLEQ [K24Q] as the variant, how does the protein stability index read?
A: 1.66

Q: For RSEFTLMAKRIGKDLSNTFAKLEN [K24N], which protein stability index is on record?
A: 3.22

Q: For RSEFTLMAKRIGKDLSNTFAKLET [K24T], which protein stability index is on record?
A: 3.14

Q: With RSEFTLMAKRIGKDLSNTFAKLEM [K24M] as the variant, how does the protein stability index read?
A: 3.26

Q: Which protein stability index does the source give for RSEFTLMAKRIGKDLSNTFAKLEY [K24Y] here?
A: 3.59

Q: With RSEFTLMAKRIGKDLSNTFAKIEK [L22I] as the variant, how does the protein stability index read?
A: 4.01

Q: With RSEFTLMAKRIGKDLSNTFAKMEK [L22M] as the variant, how does the protein stability index read?
A: 2.58

Q: For RSEFTLMAKRIGKDLSNTFAKFEK [L22F], which protein stability index is on record?
A: 2.67

Q: With RSEFTLMAKRIGKDLSNTFAKGEK [L22G] as the variant, how does the protein stability index read?
A: 3.27

Q: With RSEFTLMAKRIGKDLSNTFAKEEK [L22E] as the variant, how does the protein stability index read?
A: 3.74

Q: For RSEFTLMAKRIGKDLSNTFAKYEK [L22Y], which protein stability index is on record?
A: 1.5

Q: For RSEFTLMAKRIGKDLSNTFAKPEK [L22P], which protein stability index is on record?
A: 3.06

Q: Which protein stability index does the source give for RSEFTLMAKRIGKDLSNTFAKSEK [L22S] here?
A: 3.17

Q: Which protein stability index does the source give for RSEFTLMAKRIGKDLSNTFAKVEK [L22V] here?
A: 1.9

Q: Which protein stability index does the source give for RSEFTLMAKRIGKDLSNTFAKNEK [L22N] here?
A: 3.15

Q: For RSEFTLMAKRIGKDLSNTFAKREK [L22R], which protein stability index is on record?
A: 2.57

Q: Which protein stability index does the source give for RSEFTLMAKRIGKDLSNTFAKDEK [L22D] here?
A: 4.25

Q: Which protein stability index does the source give for RSEFTLMAKRIGKDLSNTFAKAEK [L22A] here?
A: 2.29

Q: For RSEFTLMAKRIGKDLSNTFAKHEK [L22H], which protein stability index is on record?
A: 2.7

Q: With RSEFTLMAKRIGKDLSNTFAKKEK [L22K] as the variant, how does the protein stability index read?
A: 2.47

Q: With RSEFTLMAKRIGKDLSNTFAKQEK [L22Q] as the variant, how does the protein stability index read?
A: 2.92

Q: With RSEFTLMAKRIGKDLSNTFAKTEK [L22T] as the variant, how does the protein stability index read?
A: 2.7

Q: Which protein stability index does the source give for RSEFTLMAKRIGKDLSNTFAKCEK [L22C] here?
A: 1.79

Q: Which protein stability index does the source give for RSEFTLMAKRIGKDLSNTFAHLEK [K21H] here?
A: 2.51

Q: For RSEFTLMAKRIGKDLSNTFAYLEK [K21Y], which protein stability index is on record?
A: 1.45

Q: For RSEFTLMAKRIGKDLSNTFATLEK [K21T], which protein stability index is on record?
A: 2.01

Q: With RSEFTLMAKRIGKDLSNTFAFLEK [K21F] as the variant, how does the protein stability index read?
A: 2.61

Q: Which protein stability index does the source give for RSEFTLMAKRIGKDLSNTFAMLEK [K21M] here?
A: 1.94

Q: With RSEFTLMAKRIGKDLSNTFALLEK [K21L] as the variant, how does the protein stability index read?
A: 2.47

Q: For RSEFTLMAKRIGKDLSNTFARLEK [K21R], which protein stability index is on record?
A: 2.53
